B1: TPTE2 peptide 92-107 (Phosphatidylinositol 3,4,5-trisphosphate 3-phosphatase TPTE2), 16-mer library wild type / TLN1 PTB (TLN1 Phosphotyrosine-binding (PTB) domain, residues 309-401) (parent)
chain 1: LADLIFTDSKLYIPLE
chain 2: GVSFFLVKEKMKGKNKLVPRLLGITKECVMRVDEKTKEVIQEWNLTNIKRWAASPKSFTLDFGDYQDGYYSVQTTEGEQIAQLIAGYIDIILK
B2: PAIP1 peptide 124-139 (Polyadenylate-binding protein-interacting protein 1), 16-mer library wild type / PABPC1 PABC (PABPC1 PABC domain, residues 544-623) (parent)
chain 1: LMSKLSVNAPEFYPSG
chain 2: PLTASMLASAPPQEQKQMLGERLFPLIQAMHPTLAGKITGMLLEIDNSELLHMLESPESLRSKVDEAVAVLQAHQAKEAA
B3: PIP5K1C peptide 640-655 (Phosphatidylinositol 4-phosphate 5-kinase type-1 gamma), 16-mer library wild type / TLN1 PTB (TLN1 Phosphotyrosine-binding (PTB) domain, residues 309-401) (parent)
chain 1: FPTDERSWVYSPLHYS
chain 2: B1 chain 2
B4: PEX5 peptide 108-123 (Peroxisomal targeting signal 1 receptor), 16-mer library wild type / PEX14 Pex14 (PEX14 PEX14, residues 16-84) (parent)
chain 1: GVADLALSENWAQEFL
chain 2: TPGSENVLPREPLIATAVKFLQNSRVRQSPLATRRAFLKKKGLTDEEIDMAFQQSGTAADEPSSLGPAT

Variants of: B1
Experiment: proteomic peptide phage display deep mutational scan (ProP-PD DMS): M13 P8 16-mer library selected against immobilised GST-tagged bait for four days (rounds), NGS of the eluted pools per day and pseudo-replica
Settings: with TLN1 PTB (TLN1 Phosphotyrosine-binding (PTB) domain, residues 309-401); bait immobilised on MaxiSorp plates (10 µg), library pre-cleared on GST, 2 h binding at 4 °C, five washes; one round per day, days 1-4; value from days 2 and 3; keep out of graded; scale: average fractional NGS count over selection days 2 and 3

Screen value: each site, then its substitutions
chain 1 D3: W 0; A 4.9e-05; F 9.05e-05; H 0.000117
chain 1 D8: S 4.41e-05; M 0; K 2.8e-05; H 2.4e-05; V 7.58e-05
chain 1 L11: W 0; Y 4.09e-05; A 6.5e-05; F 0.000112; S 3.91e-05
chain 1 K10: V 7.83e-05; W 6.74e-05
chain 1 F6: P 9.98e-05; G 0; M 0; S 0; Y 8.2e-05; A 0
chain 1 I13: Q 8.06e-05; W 0.000116; H 7.12e-05; M 3.76e-05; S 9.27e-05; D 0; Y 5.85e-05
chain 1 Y12: L 0; Q 0
chain 1 S9: K 0
chain 1 L15: E 6.68e-05; T 3.85e-05
chain 1 E16: R 3.05e-05
chain 1 P14: Y 7.88e-05; F 0; R 0; E 0; M 0; Q 0; S 2.74e-05
chain 1 T7: A 4.1e-05; I 3.48e-05; R 6.19e-05; E 8.56e-05; F 3.05e-05
chain 1 A2: F 2.74e-05; V 0.000107
chain 1 L4: R 0; K 6.56e-05; N 5.11e-05

Variants of: B2
Experiment: as above
Settings: with PABPC1 PABC (PABPC1 PABC domain, residues 544-623); bait immobilised on MaxiSorp plates (10 µg), library pre-cleared on GST, 2 h binding at 4 °C, five washes; one round per day, days 1-4; value from days 2 and 3; keep out of graded; scale: average fractional NGS count over selection days 2 and 3

Screen value of substitutions, site by site:
chain 1 G16: P 0.000264; L 0.000165
chain 1 L5: F 7.31e-05; V 0; E 0.00011; Y 5.13e-05; I 6.08e-05; S 0
chain 1 S6: K 0; Q 4.7e-05
chain 1 A9: T 0.000154; M 0; L 0; G 0; V 8.33e-05
chain 1 V7: M 0; K 0; L 1.45e-05; T 0.000112; I 0.00011
chain 1 M2: F 1.57e-05; H 0.000247; Y 0; R 0.000185; D 9.64e-06
chain 1 P10: V 0.000185; W 0
chain 1 F12: D 0; A 0
chain 1 Y13: P 0; F 8.82e-05; N 3.07e-05
chain 1 E11: H 0.000179; L 0.000185; W 0
chain 1 S15: L 0.000141
chain 1 K4: S 0.000112; W 0.000136; F 0.000173
chain 1 S3: Y 0.00023; R 0; F 4.71e-05
chain 1 N8: V 0.000243; I 9.39e-05; K 0; H 0.000197; Q 0.000156
chain 1 P14: T 8.32e-05; N 0; F 0.000167; H 4.17e-05; S 0.000163

Variants of: B3
Experiment: as above
Settings: with TLN1 PTB (TLN1 Phosphotyrosine-binding (PTB) domain, residues 309-401); bait immobilised on MaxiSorp plates (10 µg), library pre-cleared on GST, 2 h binding at 4 °C, five washes; one round per day, days 1-4; value from days 2 and 3; keep out of graded; scale: average fractional NGS count over selection days 2 and 3

Screen value, by site and new letter:
chain 1 H14: K 0.00016; E 0.000433; I 4.44e-05; P 0.000231; N 3.05e-05; D 0.000394; S 0.000388; L 9.59e-05; G 0.00022; T 0.00119; Q 0.000124; R 0.000159; A 0.000225; M 0.00119; F 2.74e-05; V 0.000348; W 5.14e-05; Y 0.000112
chain 1 P12: G 0.000862; V 9.3e-05; E 0.00013; H 5.79e-05; I 0.000302; L 0.000701; F 7.27e-05; S 0.000121; K 5.51e-05; N 0.000185; T 0.000179; R 0.000314; Q 0.000705; A 0.000632; M 7.3e-05; W 0.000107
chain 1 E5: F 0.000369; V 0.00021; Q 6.1e-05; I 0.000716; N 0.00102; T 0.000451; A 0.000188; H 0.000485; S 0.000272; G 0.000212; P 0.00165; K 0.000102; W 0.000904; L 0.00192; M 0.000263; Y 0.000182
chain 1 D4: I 7.24e-05; A 0.000109; L 0.000325; N 3.05e-05; V 5.15e-05; G 0.000716; S 0.000264; E 2.74e-05; F 0.00015; M 2.74e-05; Q 0.000121; R 0.000156; P 7.86e-05; W 8.26e-05; T 0.000121; H 0.000241
chain 1 R6: A 0.00241
chain 1 P2: L 0.000825; S 0.000281; Y 6.83e-05; A 4.1e-05; F 2.4e-05; D 0.000759; T 0.000173; G 9.49e-05; Q 7.98e-05; E 0.000182; N 0.000183; W 0.000111; V 0.000569; R 5.46e-05; H 2.4e-05
chain 1 L13: S 0.000183; G 0.000132; A 0.000116; W 0.00176; Y 0.000435; Q 5.12e-05; V 0.00019; I 0.000497; N 4.75e-05; F 0.00025; M 0.000592; D 0

Variants of: B4
Experiment: as above
Settings: with PEX14 Pex14 (PEX14 PEX14, residues 16-84); bait immobilised on MaxiSorp plates (10 µg), library pre-cleared on GST, 2 h binding at 4 °C, five washes; one round per day, days 1-4; value from days 2 and 3; scale: average fractional NGS count over selection days 2 and 3

Screen value, by site and new letter:
chain 1 L5: V 0.00065; G 0; D 0.000324; Y 0.000821; F 0; N 0; S 0.000191; W 0.000435
chain 1 N10: F 0.000356; S 0.000139; M 6.63e-05; T 0.000176; Y 0.00069; V 0.000297; L 0.000191; G 0; I 0.000414; K 0.000111; W 0.000211; D 0; P 0.00066
chain 1 E9: N 0.000239; I 0; R 0; V 0.000378; L 0.000321; D 0.000711; G 0.000125; S 0; M 0.000152; Y 9.07e-05; T 9.07e-05; Q 0; F 0.000305
chain 1 F15: Y 0; L 0.000134; K 0; W 0.000382; H 0.00727; I 0
chain 1 A6: Q 0.000383; L 0.000211; H 0.000488; Y 0; V 0
chain 1 L7: V 0.000339; N 0; P 0.000675; G 0.000778; Q 0; S 0.00013; H 0; K 0.000262
chain 1 L16: P 0.000186; E 0.00013; I 0; N 0; W 0.00162; K 0.000183; R 0.000857; H 0.000215; D 0; F 0; V 0.00389; G 0.00105
chain 1 V2: R 0; I 0; W 0; T 0; K 0; E 0.000749; N 0; Y 0.00067; Q 0.000476
chain 1 Q13: F 0; E 0.000434; R 0.000241; H 0.000362; W 0.000116; Y 0.00131; L 0.000475; G 0.000163; P 0.000626; T 0.000462
chain 1 D4: A 0.000207; Q 0.000734; K 0; V 0; S 0.00106; I 9.56e-05; N 0; T 0; L 0.00112; P 0; W 0.000313; E 0.000293
chain 1 W11: Y 0.00018; F 0
chain 1 S8: A 0.000717; E 0.000967; H 0.0106; D 0; W 9.4e-05; K 0; Q 0; I 0.00069; G 0.000241; P 9.07e-05; Y 0.0012
chain 1 A12: V 0; I 0.000211; G 0.000152; R 0; P 0; D 0; F 0.000389; T 0.000373; H 0.000439; W 6.63e-05; S 0.000254
chain 1 E14: H 0.000765; V 0.000334; I 0.000908; W 0.00347; F 0.000333; G 0.000243; K 0.00049; L 0.000529; S 0.00161; D 0.000196; Q 0.00136; A 0.00268; T 0.000432; R 0.00542; P 0; Y 0.00013
